These results are taken from US20240009235A1 (published 2024).

This assay addresses T1, Bob1 (gene POU2AF1) peptide on HLA-B*35:01 (human).
T1 peptide: APAPTAVVL
The assay is described as follows: multimer staining.

B1: TCR 1C5.6 (TCR, V domains shown)
Valpha: AQSVTQLDSQVPVFEEAPVELRCNYSSSVSVYLFWYVQYPNQGLQLLLKYLSGSTLVESINGFEAEFNKSQTSFHLRKPSVHISDTAEYFCAVKVSNAGGTSYGKLTFGQGTILTVHP
Vbeta: DGGITQSPKYLFRKEGQNVTLSCEQNLNHDAMYWYRQDPGQGLRLIYYSQIVNDFQKGDIAEGYSVSREKKESFPLTVTSAQKNPTAFYLCASSIAQGADTQYFGPGTRLTVL
Turning to B1, the binding result was “no recognition”.
